Reference: publication PMC7278562, “A high‐affinity, bivalent PDZ domain inhibitor complexes PICK1 to alleviate neuropathic pain” (EMBO Molecular Medicine, 2020)
Ends that are not written are not given here. Peptide text beside a SMILES is read from it. * marks the point of attachment. 3‑phenylpropyl = c1ccc(CCC*)cc1; Cyclohexylmethyl = C1CCC(C*)CC1; Bn = c1ccc(C*)cc1

Columns and labels:
[1] = target: PICK1 (protein interacting with C kinase) (rat) (UniProt Q9EP80); test: fluorescence polarisation; competition; fixed PICK1 and a fluorescent tracer (not named for this series) against increasing unlabeled peptide; 20 min on ice; Ki by Cheng-Prusoff
[2] = target: OrG-C11, Oregon Green labelled C-terminal 11 residues of the dopamine transporter; test: fluorescence polarisation; saturation; fluorescent peptide fixed at 20 nM, increasing PICK1; 0.01% Triton X-100 (PICK1 a dimer); KD from a log dose-response fit
[3] = target: Org-GluA2 C11, Oregon Green labelled C-terminal 11 residues of GluA2; test: as above
[4] = test system: mechanical allodynia in SNI mice; test: Spared nerve injury (SNI) model, von Frey paw withdrawal threshold; type: in vivo
[5] = target: PICK1 (protein interacting with C kinase 1), purified recombinant rat (rat) (UniProt Q9EP80); test: fluorescence polarisation; competition (Ki with SEM interval); tracer and conditions not stated
[6] = 20 μM i.t.; for presence in spinal cord after i.t. injection: naïve mice, 1 h after injection, fluorescence
Protocol: All spinal cords were isolated by hydraulic extrusion and post‐fixed in PFA 4% for 8 h. Spinal cords were subsequently cryoprotected in 30% sucrose, embedded in Tissue‐Tek® OCT, and sliced at 20 μm thickness by Cryostat Leica CM3050 S.
Epifluorescence microscopy was performed using a Zeiss axioscan.Z1, with a plan‐apochromat 10×/0.45 objective (Carl Zeiss). […] All channels were imaged covering a total of around 6 μm of the 20‐μm‐thick spinal cord slices.

[7] = target: PICK1 (protein interacting with C kinase) (rat) (UniProt Q9EP80); test: fluorescence polarisation
[8] = target: PICK1 (protein interacting with C kinase) (rat) (UniProt Q9EP80); test: fluorescence polarisation; remark: listed apart in the source
[9] = target: PICK1 (protein interacting with C kinase) (rat) (UniProt Q9EP80); test: SEC; analytical SEC of purified PICK1 (40 uM in the titration) alone or incubated with peptide; absorbance at 280 nm and, for the TMR peptide, 544/546 nm
[10] = target: DAT C13 C-terminal 13 residues (Homo sapiens) (UniProt Q01959); conditions: cited from earlier work
[11] = Plasma stability; type: in vitro ADME; conditions: human plasma (3H biomedical) with 2% DMSO, 50 μM peptide, 37°C, GnHCl/TCA-acetone work-up, C8 RP-HPLC (UPLC), normalized to T = 0, mean, n ≥ 3, read-out: peptide remaining after incubation with human plasma
Protocol: The peptides were dissolved to a final concentration of 50 μM in human plasma (3H biomedical, Uppsala, Sweden) containing 2% DMSO and incubated at 37°C. Aliquots (45 μl) were added directly to 26 mg guanidine hydrochloride (GnHCl), vortexed, and incubated for 2 min. 90 μl of 10% trichloroacetic acid (TCA) in acetone was then added, and the suspension was incubated at 5°C for 24 h.
The suspension was centrifuged at 18,000 g for 5 min. The supernatants were quantified by analytical C8 RP‐HPLC and normalized to the compound concentration at T = 0. Ligand recovery was > 82%.

[12] = target: T1, PICK1 (Rattus norvegicus, UniProt Q9EP80); test: FP saturation binding; conditions: Appendix Fig S2, n = 3
T1 construct: GST (inferred from pET41 and Glutathione-Sepharose capture) (cleaved yes); made in house; host or cells: Escherichia coli BL21-DE3-pLysS
Protocol: Protein expression was induced with 1 mM IPTG and grown overnight at 20°C. […] 1 l culture at pH 7.4. Suspended pellet was frozen at −80°C. The bacterial suspension was thawed and cleared by centrifugation (F20 rotor, 36,000 × g for 30 min at 4°C). The supernatant was collected and incubated with Glutathione‐Sepharose 4B beads (GE Healthcare) for 2 h at 4°C under gentle rotation. […] Washed beads were transferred to a PD10 gravity column and were washed additionally three times. Bead solution was incubated with thrombin overnight at 4°C under gentle rotation.
The data were plotted using GraphPad Prism 8.3 and fitted to either a sigmoidal dose response for saturation experiments or One site competition for competition experiments. Kis were automatically calculated using the Cheng–Prusoff equation.

[13] = test system: hippocampal neurons; test: Membrane permeability in dissociated hippocampal neurons (confocal, DiO membrane dye); conditions: 21 DIV neurons, 1 h, 37°C, 5 μM TMR-labeled peptide (legend: TMR-C5 20 μM), confocal fluorescence
[14] = target: T1, PICK1; conditions: best-known binder of the PICK1 PDZ domain; ref Madsen et al, 2005; cited from earlier work
Excerpt: To this end, we took advantage of a fluorescence polarization (FP) competition assay using a fluorescent tracer peptide corresponding to the C‐terminal 11 residues of the DAT (OrG‐C11) (Fig EV1A).

PICK1 PDZ, sequence (Q9NRD5 19-108): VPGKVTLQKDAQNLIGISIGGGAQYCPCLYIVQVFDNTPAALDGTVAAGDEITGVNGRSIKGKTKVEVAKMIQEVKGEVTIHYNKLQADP

## PEG0‐(HWLKV)2 (peptide)
[1]
  fold increase in affinity over C5: > 10 fold

## PICK1 (protein interacting with C kinase 1), purified recombinant rat (from UniProt Q9EP80 1-416) (natural protein)
[2]
  Kd: 440 nM
[3]
  Kd: 1530 nM

## CCOC(=O)NC(=O)/C(C#N)=C/c1ccc(Cl)c(Cl)c1 [FSC231]
[4]; i.t. 20 μM, initiation stage (2 days after injury), n = 8 mice/group
  effect on PWT / ipsilateral paw hypersensitivity: did not significantly change PWT

## DAT C3 peptide, N-alkylated, R drawn (cyclohexylmethyl)
[5]
  Ki: 6.82 µM

## TMR‐Ahx‐YGRKKRRQRRR‐HWLKV [TMR-Tat-C5]
[6]
  presence in spinal cord after i.t. injection: clearly visible in both the ventral and dorsal parts of the spinal cord

## Tat‐P4‐(C5)2 (peptide)
[7]
  Ki: 6.2 nM
  fold affinity gain over C5: > 300 fold
[8]
  Ki: 1.7 nM
[9]
  stoichiometry N (Tat‐P4‐(C5)2 per PICK1): 0.25

## PICK1 PDZ (from UniProt Q9NRD5)
[10]
  Ki: 1000 nM

## DAT C3 peptide, N-acetylated, R = COCH3
[5]
  Ki: 3.8 µM

## CC(C)C[C@H](NC(=O)[C@H](Cc1c[nH]c2ccccc12)NC(=O)[C@H](Cc1cnc[nH]1)NC(=O)[C@H](CCCNC(=N)N)NC(=O)[C@H](CCCNC(=N)N)NC(=O)[C@H](CCCNC(=N)N)NC(=O)[C@H](CCC(N)=O)NC(=O)[C@H](CCCNC(=N)N)NC(=O)[C@H](CCCNC(=N)N)NC(=O)[C@H](CCCCN)NC(=O)[C@H](CCCCN)NC(=O)[C@H](CCCNC(=N)N)NC(=O)CNC(=O)[C@@H](N)Cc1ccc(O)cc1)C(=O)N[C@@H](CCCCN)C(=O)N[C@H](C(=O)O)C(C)C [Tat-C5]
[11]
  remaining at 24 h, 50 μM: ~5%

## DAT C3 peptide, N-alkylated, R = CH3
[5]
  Ki: 9.38 µM

## CC(C)C[C@H](NC(=O)[C@H](Cc1c[nH]c2ccccc12)NC(=O)[C@H](Cc1c[nH]cn1)NC(=O)CCOCCOCCN(CCOCCOCCC(=O)N[C@@H](Cc1c[nH]cn1)C(=O)N[C@@H](Cc1c[nH]c2ccccc12)C(=O)N[C@@H](CC(C)C)C(=O)N[C@@H](CCCCN)C(=O)N[C@H](C(=O)O)C(C)C)C(=O)[C@H](CCCNC(=N)N)NC(=O)[C@H](CCCNC(=N)N)NC(=O)[C@H](CCCNC(=N)N)NC(=O)[C@H](CCC(N)=O)NC(=O)[C@H](CCCNC(=N)N)NC(=O)[C@H](CCCNC(=N)N)NC(=O)[C@H](CCCCN)NC(=O)[C@H](CCCCN)NC(=O)[C@H](CCCNC(=N)N)NC(=O)CNC(=O)[C@H](Cc1ccc(O)cc1)NC(=O)c1ccc2c(c1)C(=O)OC21c2ccc(N(C)C)cc2Oc2cc(N(C)C)ccc21)C(=O)N[C@@H](CCCCN)C(=O)N[C@H](C(=O)O)C(C)C [TMR-Tat-P4-(C5)2]
[12]
  affinity from saturation binding curves: low nanomolar affinity
[6]; SNI mice, time points 0, 30, 60, 120 min
  time of maximal accumulation in cells: 60 min
[6]; SNI mice, NeuN and GFAP staining
  cell type of peptide signal in gray matter: exclusively confined toward neurons
[6]
  presence in spinal cord after i.t. injection: clearly visible in both the ventral and dorsal parts of the spinal cord
[13]
  membrane penetration / labeling of neurons: labeled neurons

## NCC1(CC(=O)O)CCCCC1 [gabapentin]
[4]; i.p. 30 mg/kg, chronic phase, n = 4 per gender
  efficacy 14 days after nerve injury: comparable efficacy
[4]; i.p. 30 mg/kg, initiation stage (2 days after injury), at 1, 2, 3 h, n = 4 mice
  ipsilateral paw threshold: full recovery

## CC(C)C[C@H](NC(=O)[C@H](Cc1c[nH]c2ccccc12)NC(=O)[C@H](Cc1c[nH]cn1)NC(=O)[C@H](CCCNC(=N)N)NC(=O)[C@H](CC(C)C)NC(=O)[C@@H](NC(=O)[C@H](Cc1ccccc1)NC(=O)[C@H](CCC(N)=O)NC(=O)[C@H](CCCNC(=N)N)NC(=O)[C@@H](NC(=O)[C@@H](N)CCC(=O)O)C(C)C)[C@@H](C)O)C(=O)N[C@@H](CCCCN)C(=O)N[C@H](C(=O)O)C(C)C [DAT C13] (H-EVRQFTLRHWLKV-OH)
[14]
  Ki: 1000 nM

## PEG8‐(HWLKV)2 (peptide)
[1]
  fold increase in affinity over C5: > 10 fold

## DAT C3 peptide, no modification
[5]
  Ki: 4.1 µM

## PEG12‐(HWLKV)2 (peptide)
[1]
  fold increase in affinity over C5: > 10 fold

## P28‐(C5)2 (peptide)
[1]
  Ki: 593 nM

## P4‐(C5)2 (peptide)
[1]
  Ki: 98 nM

## Cyclohexylmethyl-WLKV [DAT C4 peptide, N-alkylated, R drawn (cyclohexylmethyl)]
[5]
  Ki: 15.1 µM

## {2‑cyclohexylethyl}-WLKV [DAT C4 peptide, N-alkylated, R drawn (2-cyclohexylethyl)]
[5]
  Ki: 31.8 µM

## {n‑propyl}-WLKV [DAT C4 peptide, N-alkylated, R = (CH2)2CH3]
[5]
  Ki: 46.6 µM

## {2‑(naphthyl)ethyl}-WLKV (not fully specified) [DAT C4 peptide, N-alkylated, R drawn (2-naphthylethyl)]
[5]
  Ki: 48 µM

## Et-WLKV [DAT C4 peptide, N-alkylated, R = CH2CH3]
[5]
  Ki: 30 µM

## methyl-WLKV [DAT C4 peptide, N-alkylated, R = CH3]
[5]
  Ki: 18.8 µM

## Bn-WLKV [DAT C4 peptide, N-alkylated, R drawn (benzyl)]
[5]
  Ki: 24.5 µM

## {3‑phenylpropyl}-WLKV [DAT C4 peptide, N-alkylated, R drawn (3-phenylpropyl)]
[5]
  Ki: 38.6 µM

## WLKV [DAT C4 peptide, no modification]
[5]
  Ki: 5.69 µM

## Ac-WLKV [DAT C4 peptide, N-acetylated, R = COCH3]
[5]
  Ki: 3.49 µM

## {n‑butyl}-WLKV [DAT C4 peptide, N-alkylated, R = (CH2)3CH3]
[5]
  Ki: 45.3 µM

## {2‑phenylethyl}-WLKV [DAT C4 peptide, N-alkylated, R drawn (2-phenylethyl)]
[5]
  Ki: 26.2 µM
